The target of experiment [1] is htt^ex1Q7 (huntingtin exon-1 polypeptide with seven glutamines). The experiment can be described thus: NMR titration.
Experiment [2] has as its target PL: binary complex of monomeric htt^ex1Q7 with Fyn SH3 (not stated | Gallus gallus) (UniProt Q05876). The experiment can be described thus: NMR titration.
Experiment [3] addresses huntingtin exon 1 (httex1Q7) dimer exon 1 (Homo sapiens) (UniProt P42858). Particulars: cited from earlier work.

Kd and stoichiometry N data for three substances are collected here from PMC8855710.

As for “Gallus gallus tyrosine kinase Fyn SH3 domain (wild type) (from UniProt Q05876 85-135) (domain or fragment)”, the Kd in experiment [1] is 210 µM.

Consider “PL: binary complex of monomeric htt^ex1Q7 with Fyn SH3 (from UniProt Q05876 85-135)”, for which the stoichiometry N in experiment [2] came to 2.

For “huntingtin exon 1 (httex1Q7) dimer exon 1 (from UniProt P42858)”, the Kd in experiment [3] is 25 µM.
